Source: the Immune Epitope Database (IEDB)

Molecular target: HLA-B*07:02
Test: IEDB peptide-MHC binding, purified MHC/competitive/fluorescence; ≥ and ≤ were set here for values at or beyond the usual limits of such assays
Conditions: source organism: H1N1 subtype

Compared with LPFDKITIM, LPFDRPTIM is 1.6-fold higher in IC50: 4810 nM for the first, 7910 nM for the second.

LPFEKTTIM and LPFGKTTIM are within 1.5-fold of each other in IC50: 1190 nM for the first, 881 nM for the second.

Same assay, conditions: source organism: H1N1 subtype Influenza A/Oklahoma/7485/01

For LPFDKTTIM, the IC50 was 192 nM.

Same assay, conditions: source organism: H3N2 subtype

Going from LPFDKPTIM to LPFDKQTIM, the IC50 rises from 335 nM to 46500 nM (140-fold).

Going from LPFEKSIVM to LPFERATII, the IC50 rises from 494 nM to 1180 nM (2.4-fold).

In the case of LPFERSTVM, the IC50 is reported as ≥ 149000 nM.
